# Measurements published in article PMC2198845 (The Journal of Cell Biology, 2001).
# B1: endophilin NH2-terminal 125 amino acid fragment (domain or fragment, rat, UniProt O35179 1-125, looked up)
# chain: MSVAGLKKQFHKATQKVSEKVGGAEGTKLDDDFKEMERKVDVTSRAVMEIMTKTIEYLQPNPASRAKLSMINTMSKIRGQEKGPGYPQAEALLAEAMLKFGRELGDDCNFGPALGEVGEAMRELS
# Target: the molecule itself
# Assay: cross-linking
protein,measurement,value
B1,stoichiometry N,2
